Measurements taken from US20150337012A1 (HOYA, published 2015).
Where no end group is shown, it is not given here. The star is where a group is joined. FITC = O=C1OC2(c3ccc(O)cc3Oc3cc(O)ccc32)c2ccc(NC(=S)*)cc21; Ahx = NCCCCCC(=O)O

B1: I-1010 phage in which the 1st W was substituted with F and the 8th Q was substituted with A (peptide, not shown: large carriers)
peptide: FHLSDLWANAWH
notes: Phage with two substituted amino acids; also called W1F/Q8A
B2: I-1010 phage in which the 3rd L was substituted with M and the 8th Q was substituted with A (peptide, not shown: large carriers)
peptide: WHMSDLWANAWH
notes: Phage with two substituted amino acids; also called L3M/Q8A
B3: I-1010 phage (peptide displayed phage from the D12 library) (peptide, not shown: large carriers)
peptide: WHLSDLWQNAWH
notes: tested as phage particles, 1x10^10 PFU per well

Molecular target: T1, recombinant human EGFR/Fc chimera (rhEGFR, R&D Systems) (human, UniProt P00533 25-645)
T1 construct: Bought reagent; Coated on the plate at 1 ug/well; also called genetically modified EGFR protein; not shown: human IgG1 Fc moiety of the chimera
Experiment: substituted phage binding to plate-coated rhEGFR, titer ratio
Experimental: A rhEGFR that is a target protein was added to a 96-well microplate to be 1 μg/well, and stood still at 4° C. overnight to be thus formed into a solid phase. A protein solution was removed, 300 μl of a blocking buffer (5 mg/mL BSA/TBS) was added and the mixture was incubated at 37° C. for 1 hour to thus block the wells. After removal of the blocking buffer, the wells were washed with 200 μl of 0.5% TBST (0.5% Tween20/TBS) being the washing solution three times and thereto was finally added 100 μl of 0.5% TEST. An amplification phage solution was added to the above described wells to have 1×10¹⁰ PFU and mixed by pipetting. In the reaction, the mixture was gently shaken at room temperature for 1 hour. The reaction solution was removed and the wells were washed with 200 μl of 0.5% TBST ten times, 100 μl of 0.2 M glycine-HCl (pH 2.2) was then added to the wells and stirred by pipetting, thereafter gently shaking at room temperature for 10 minutes. The eluate was collected to a microtube from the wells and added with 15 μl of 1 M Tris-HCl (pH 9.1) to be neutralized and a target binding phage solution was thus obtained. The binding ability of the collected phage was examined by a measurement of a titer.

| Binder | binding result |
| --- | --- |
| FHLSDLWQNAWH (peptide, not shown: large carriers, also called W1F) [I-1010 amino acid substituted phage, 1st W substituted with F] | binds |
| WHISDLWQNAWH (peptide, not shown: large carriers, also called L3I) [I-1010 amino acid substituted phage, 3rd L substituted with I] | binds |
| WHMSDLWQNAWH (peptide, not shown: large carriers, also called L3M) [I-1010 amino acid substituted phage, 3rd L substituted with M] | binds |
| WHVSDLWQNAWH (peptide, not shown: large carriers, also called L3V) [I-1010 amino acid substituted phage, 3rd L substituted with V] | binds |
| WHLSDLFQNAWH (peptide, not shown: large carriers, also called W7F) [I-1010 amino acid substituted phage, 7th W substituted with F] | binds |
| WHLSDLYQNAWH (peptide, not shown: large carriers, also called W7Y) [I-1010 amino acid substituted phage, 7th W substituted with Y] | binds |
| B1 | binds |
| B2 | binds |

Molecular target: T1, recombinant human EGFR/Fc chimera …
Experiment: phage binding to plate-coated protein, titer ratio
Experimental: After removal of the blocking buffer, the wells were washed with 200 μl of 0.5% TBST being the washing solution three times and thereto was finally added 100 μl of 0.5% TBST. […] In the reaction, the mixture was gently shaken at room temperature for 1 hour. The reaction solution was removed and the wells were washed with 200 μl of 0.5% TBST ten times, 100 μl of 0.2 M glycine-HCl (pH 2.2) was added to the wells and stirred by pipetting, thereafter gently shaking at room temperature for 10 minutes. The eluate was collected to a microtube from the wells and added with 15 μl of 1 M Tris-HCl (pH 9.1) to be neutralized and a target binding phage solution was thus obtained. The binding ability of the collected phage was examined by a measurement of a titer.
A rhEGFR that is a target protein, a recombinant human ErbB2(rhErbB2, PROSPEC) as a HER2 protein belonging to the ErbB family same as an EGFR, are combinant human IGF-1R, CF(rhIGF-1R, R&D Systems) as an IGF-1R protein that is one of extracellular proteins were added to a 96-well microplate to be 1 μg/well, and stood still at 4° C. overnight to be thus formed into a solid phase. A protein solution was removed, 300 μl of a blocking buffer was added and the mixture was incubated at 37° C. for 1 hour to thus block the wells. After removal of the blocking buffer, the wells were washed three times with 200 μl of 0.5% TBST washing solution, and finally 100 μl of 0.5% TBST was added thereto. […] In the reaction, the mixture was gently shaken at room temperature for 1 hour. The reaction solution was removed, the wells were washed with 200 μl of 0.5% TEST ten times, and 100 μl of 0.2 M glycine-HCl (pH 2.2) was then added to the wells and stirred by pipetting, thereafter gently shaking at room temperature for 10 minutes. The eluate was collected to a microtube from the wells and added with 15 μl of 1 M Tris-HCl (pH 9.1) to be neutralized and a target binding phage solution was thus obtained.

| Binder | fold binding to rhEGFR over binding to BSA | fold binding to rhEGFR over binding to rhErbB2 | fold binding to rhEGFR over binding to rhIGF-1R | fold binding to rhEGFR over binding to rhIgG1 |
| --- | --- | --- | --- | --- |
| B3 | 3810 times | 1760 times | 2830 times | 1660 times |
| FHDWLPEVSPPD (peptide, not shown: large carriers, tested as phage particles) [I-1012 phage (peptide displayed phage from the D12 library)] | 3100 times | 1580 times | 4340 times | 3420 times |
| LHQSEWMYVDIH (peptide, not shown: large carriers, tested as phage particles) [I-1015 phage (peptide displayed phage from the D12 library)] | 14000 times | 4740 times | 7710 times | 19000 times |

Molecular target: T2, EGFR expressed by A-431 cells (human, UniProt P00533 25-1210)
T2 construct: whole, on cells; also called EGFR expressed by cells
Experiment: confocal fluorescence microscopy of A-431 cells with 100 µM FITC-labeled peptide
Experimental: A-431 cells were inoculated in a glass bottom dish to be 20×10⁴ cells/dish and MCF7 cells were inoculated in a glass bottom dish to be 75×10⁴ cells/dish, and cultured at 37° C. in the condition of CO₂ for 24 hours. After culturing each kind of the cells for a specified time, EGF was added to have a concentration of 100 ng/mL and the mixture was cultured for 6 days. Thereafter, the culture solution in the dish was removed and washed with 1000 μL of a growth medium at 37° C. ten times. […] A staining fluid was removed and washed with 1 mL of a growth medium at 37° C. three times and thereto was finally added 1 mL of the medium. For observation, fluorescent observation was carried out by irradiating an exciting light laser with a wavelength of 488 nm using a confocal microscope (Leica SP2).

| Binder | binding result |
| --- | --- |
| {FITC-Ahx}-WHLSDLWQNAWH [Pep055-F (FITC-labeled Pep055)] | binds |

Molecular target: T2, EGFR expressed by A-431 cells
Experiment: phage binding to A-431 cells at 4 °C, titer ratio corrected for the number of collected cells
Experimental: A-431 cells were inoculated in a 6-well culture plate at 40×10⁴ cells/well and cultured at 37° C. in the condition of 5% CO₂ overnight. The plate was incubated at 4° C. for 30 minutes and a medium in each well was removed, and treated by washing with 1 mL of 1% BSA/PBS twice. […] After the reaction, the reaction solution was removed and washed with 1 mL of 1% BSA/PBS ten times to remove non-binding phages. Thereto was added 100 μl of a 0.05% trypsin/0.53 mM EDTA solution and the reaction solution was incubated at 37° C. for about 10 minutes and added with 900 μl of a growth medium to prepare a collected phage solution. A titer of each collected phage solution was measured.

| Binder | fold titer ratio over that of the M13KE phage |
| --- | --- |
| B3 | 45 times |
